# T1: human CD138 (human, UniProt P18827 23-310)
# T1 construct: whole, on cells; Cell surface antigen targeted on human MM cell lines in flow cytometry
# T1 sequence (looked up): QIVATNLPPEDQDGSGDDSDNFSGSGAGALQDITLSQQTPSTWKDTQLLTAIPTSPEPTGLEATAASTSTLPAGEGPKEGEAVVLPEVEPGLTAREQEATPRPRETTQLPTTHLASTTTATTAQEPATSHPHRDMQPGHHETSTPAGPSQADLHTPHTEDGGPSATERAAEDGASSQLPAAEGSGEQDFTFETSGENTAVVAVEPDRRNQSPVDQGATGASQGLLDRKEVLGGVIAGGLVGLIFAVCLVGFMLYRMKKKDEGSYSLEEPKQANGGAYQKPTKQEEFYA
# T2: human B-cell maturation antigen (BCMA) (human, UniProt Q02223 1-184)
# T2 construct: whole, on cells; Cell surface antigen targeted on human MM cell lines in flow cytometry
# T2 sequence (looked up): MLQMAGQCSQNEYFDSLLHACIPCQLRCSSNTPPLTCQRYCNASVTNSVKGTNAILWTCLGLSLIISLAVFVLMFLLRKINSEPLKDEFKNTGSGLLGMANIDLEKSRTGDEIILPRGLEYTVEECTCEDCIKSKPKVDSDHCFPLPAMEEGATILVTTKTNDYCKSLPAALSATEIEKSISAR
# B1: Anti-SLAMF7 DVD-IgG1 (1) (antibody)
# light: DIQMTQSPSSLSASVGDRVTITCKASQDVGIAVAWYQQKPGKVPKLLIYWASTRHTGVPDRFSGSGSGTDFTLTISSLQPEDVATYYCQQYSSYPYTFGQGTKVEIKASTKGPELQMTQSPSSLSASVGDRVTITCRSSQSLLHTYGSPYLNWYLQKPGQSPKLLIYKVSNRFSGVPSRFSGSGSGTDFTLTISSLQPEDFAVYFCSQGTHLPYTFGGGTKVEIKRTVAAPSVFIFPPSDEQLKSGTASVVCLLNNFYPREAKVQWKVDNALQSGNSQESVTEQDSKDSTYSLSSTLTLSKADYEKHKVYACEVTHQGLSSPVTKSFNRGEC
# heavy: not shown
# notes: Dual variable domain IgG1: outer anti-SLAMF7 Fv, ASTKGP spacer, inner h38C2 Fv, human IgG1 and kappa constant domains
# B2: Anti-CD138 DVD-IgG1 (3) (antibody)
# light: DIQMTQSTSSLSASLGDRVTISCSASQGINNYLNWYQQKPDGTVELLIYYTSTLQSGVPSRFSGSGSGTDYSLTISNLEPEDIGTYYCQQYSKLPRTFGGGTKLEIKASTKGPELQMTQSPSSLSASVGDRVTITCRSSQSLLHTYGSPYLNWYLQKPGQSPKLLIYKVSNRFSGVPSRFSGSGSGTDFTLTISSLQPEDFAVYFCSQGTHLPYTFGGGTKVEIKRTVAAPSVFIFPPSDEQLKSGTASVVCLLNNFYPREAKVQWKVDNALQSGNSQESVTEQDSKDSTYSLSSTLTLSKADYEKHKVYACEVTHQGLSSPVTKSFNRGEC
# heavy: not shown
# notes: Dual variable domain IgG1: outer anti-CD138 Fv, ASTKGP spacer, inner h38C2 Fv, human IgG1 and kappa constant domains
# B3: Anti-BCMA DVD-IgG1 (2) (antibody)
# light: DIQMTQSPSSLSASVGDRVTITCSASQDISNYLNWYQQKPGKAPKLLIYYTSNLHSGVPSRFSGSGSGTDFTLTISSLQPEDFATYYCQQYRKLPWTFGQGTKLEIKASTKGPELQMTQSPSSLSASVGDRVTITCRSSQSLLHTYGSPYLNWYLQKPGQSPKLLIYKVSNRFSGVPSRFSGSGSGTDFTLTISSLQPEDFAVYFCSQGTHLPYTFGGGTKVEIKRTVAAPSVFIFPPSDEQLKSGTASVVCLLNNFYPREAKVQWKVDNALQSGNSQESVTEQDSKDSTYSLSSTLTLSKADYEKHKVYACEVTHQGLSSPVTKSFNRGEC
# heavy: not shown
# notes: Dual variable domain IgG1: outer anti-BCMA Fv, ASTKGP spacer, inner h38C2 Fv, human IgG1 and kappa constant domains
# B4: h38C2 IgG1 (antibody, V domains shown)
# VH: EVQLVESGGGLVQPGGSLRLSCAASGFTFSNYWMSWVRQSPEKGLEWVSEIRLRSDNYATHYAESVKGRFTISRDNSKNTLYLQMNSLRAEDTGIYYCKTYFYSFSYWGQGTLVTVSS
# VL: ELQMTQSPSSLSASVGDRVTITCRSSQSLLHTYGSPYLNWYLQKPGQSPKLLIYKVSNRFSGVPSRFSGSGSGTDFTLTISSLQPEDFAVYFCSQGTHLPYTFGGGTKVEIKR
# notes: also called humanized 38C2 IgG1
# Assays:
# [1] = molecular target: T3, human SLAMF7 (human, UniProt Q9NQ25 23-335); experiment: flow cytometry on MM cell lines U-266, NCI-H929, RPMI-8226; DVD-IgG1 at 20 nM, Alexa Fluor 647 anti-human Fc; curve assigned by grey tone only
# T3 construct: whole, on cells; Cell surface antigen targeted on human MM cell lines in flow cytometry; also called CS-1
# Procedure: (§1) Flow cytometry: In a V-bottom 96-well plate (Corning), 100,000 cells per well were dispensed. The cells were washed with 200 μL flow cytometry buffer (PBS, 2% (v/v) FBS, 0.01% (w/v) NaN₃, pH 7.4), incubated with DVD-IgG1 or IgG1 (50 μL of a 20 nM solution in PBS) for 30 min on ice, washed with 200 μL ice-cold flow cytometry buffer, and stained with Alexa Fluor 647 conjugated polyclonal (Fab′)₂ donkey anti-human Fc (Jackson ImmunoResearch Laboratories) for 20 min on ice. After washing twice with 200 μL ice-cold flow cytometry buffer, the cells were analyzed using a Canto II Flow Cytometer (Becton-Dickinson). Data were analyzed using FlowJo software (Tree Star).
# [2] = molecular target: T1, human CD138; experiment: flow cytometry on MM cell lines U-266, NCI-H929, RPMI-8226; DVD-IgG1 at 20 nM, Alexa Fluor 647 anti-human Fc
# Procedure: as §1
# [3] = molecular target: T2, human B-cell maturation antigen (BCMA); experiment: flow cytometry on cells; cell line and concentration not printed on the sheet (methods paragraph 609)
# Procedure: Flow cytometry: During the process of flow cytometry, 100,000 cells were dispensed in each well of a V-bottom 96-well plate (Corning) and washed with 150 μL of flow cytometry buffer (PBS, 2% (v/v) FBS, 0.01% (w/v) NaN₃, pH 7.4). Subsequently, the cells were incubated with the antibodies (200 nM in 50 μL PBS) for 1 h on ice, followed by 3 rounds of washing (200 μL flow buffer). Finally, the cells were stained with R-Phycoerythrin AffiniPure F(ab′)₂ Fragment Goat Anti-Human IgG, F(ab′)₂ fragment specific (for Fabs and IgG1 or IgG1 ARCs), or R-Phycoerythrin AffiniPure F(ab′)₂ Fragment Donkey Anti-Human IgM, Fc5μ fragment specific (IgM or IgM ARCs) purchased from Jackson ImmunoResearch Laboratories for 30 min on ice. After 3 rounds of washing, the cells were passed through a BD FACSCanto™ II and the data were extracted and analyzed via FlowJo software.
# [4] = molecular target: T1, human CD138; experiment: flow cytometry on MM cell lines U-266, NCI-H929, RPMI-8226; negative control
# Procedure: as §1
# [5] = molecular target: T3, human SLAMF7; experiment: as above
# Procedure: as §1
binder,measurement,setting,value
B1,binding result,[1],binds
B2,binding result,[2],binds
B3,binding result,[3],binds
B4,binding result,[4],no binding (tested: 20 nM (single concentration))
same,binding result,[5],no binding (tested: 20 nM (single concentration))

# Source: US20230049529A1 (ALNYLAM PHARMACEUTICALS, published 2023)
